In PMC3485183:

Assays:
[1] = biological target: HA-tagged RCAN1-3KR mutant (human); experiment: co-IP; HEK293 cells co-transfected with Flag-calcineurin and HA-tagged wild-type RCAN1 or RCAN1-3KR; IP with HA antibody, blot with Flag antibody
Flag-calcineurin = Flag-calcineurin (UniProt Q08209)
[2] = biological target: HA-tagged wild-type calcineurin A (UniProt Q08209); experiment: co-IP; HEK293 cells co-transfected with HA-calcineurin and Myc-RCAN1, without or with T7-NEDD8, NEDD8-ΔGG, or after NEDD8 or control siRNA (60 nM); lysis in 1% NP40 buffer; IP with HA antibody, blot with Myc antibody

Sequence of Myc-RCAN1 (P53805 whole entry): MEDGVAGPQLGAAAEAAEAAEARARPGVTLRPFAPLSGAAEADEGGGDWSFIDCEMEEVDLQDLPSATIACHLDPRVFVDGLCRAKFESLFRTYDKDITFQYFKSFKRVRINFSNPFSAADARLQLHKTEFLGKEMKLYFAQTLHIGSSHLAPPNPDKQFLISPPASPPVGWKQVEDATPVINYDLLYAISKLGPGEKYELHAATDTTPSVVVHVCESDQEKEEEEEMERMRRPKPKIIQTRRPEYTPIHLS

## Flag-calcineurin (from UniProt Q08209 1-521) (enzyme)
[1]
  reduction of binding against wild-type RCAN1: 40%

## HA-tagged human wild-type RCAN1 (RCAN1-1S) (natural protein)
Flag-calcineurin
  NFAT-luciferase reporter activity in HEK293 cells treated with ionomycin, inhibition against reporter alone: > 60%

## Myc-RCAN1 (natural protein)
[2]
  increase of binding with co-expressed wild-type NEDD8, against no NEDD8: 30%
